From US20190100588A1 (VISTERRA, published 2019) come the findings set out here.

The target of test [1] is T1, recombinant CD138 extracellular domain (soluble CD138) (human, UniProt P18827 23-250).
T1 construct: also called soluble CD138 extracellular domain; biotinylated CD138
T1 sequence: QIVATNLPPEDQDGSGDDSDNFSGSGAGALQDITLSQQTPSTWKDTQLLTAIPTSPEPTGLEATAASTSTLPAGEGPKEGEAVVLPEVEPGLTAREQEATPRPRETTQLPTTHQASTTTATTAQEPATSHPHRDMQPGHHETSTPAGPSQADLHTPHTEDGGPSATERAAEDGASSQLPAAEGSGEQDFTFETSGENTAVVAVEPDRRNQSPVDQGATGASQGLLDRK
Briefly: ELISA, soluble CD138. How it is done: (§1) Antibody B-B4 was included as a reference. Briefly, the monoclonal antibodies were tested for binding to recombinant CD138 extracellular domain consisting of amino acids 23-254 of human CD138, in four-fold serial dilutions starting at 1 μg/mL. HRP-conjugated anti-human IgG-Fc antibody (1:5000 dilution) was used for detection.

Test [2] addresses T2, Pep6 (human).
T2 construct: also called Peptide 6; Peptide-6
T2 peptide: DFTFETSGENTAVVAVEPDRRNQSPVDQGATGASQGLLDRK
Kind of test: peptide binding ELISA. How it is done:
(§2) As above, the monoclonal antibodies were tested for binding to a series of CD138 peptides in four-fold serial dilutions starting at 1 μg/mL. […] HRP-conjugated anti-human IgG-Fc antibody (1:5000 dilution) was used for detection. Antibody B-B4 was also tested as a reference. […] Reference antibody B-B4 only bound to Peptide 2a.

The target in test [3] is T3, Peptide 2a (human).
T3 construct: also called Pep2a
T3 peptide: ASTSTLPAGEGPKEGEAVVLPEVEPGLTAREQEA
Kind of test: peptide binding ELISA. On the procedure:
as §2

Test [4] concerns the target T4, cell surface CD138 (human CD138) (human, UniProt P18827 23-310).
T4 construct: whole, on cells; also called membrane CD138
T4 sequence (looked up): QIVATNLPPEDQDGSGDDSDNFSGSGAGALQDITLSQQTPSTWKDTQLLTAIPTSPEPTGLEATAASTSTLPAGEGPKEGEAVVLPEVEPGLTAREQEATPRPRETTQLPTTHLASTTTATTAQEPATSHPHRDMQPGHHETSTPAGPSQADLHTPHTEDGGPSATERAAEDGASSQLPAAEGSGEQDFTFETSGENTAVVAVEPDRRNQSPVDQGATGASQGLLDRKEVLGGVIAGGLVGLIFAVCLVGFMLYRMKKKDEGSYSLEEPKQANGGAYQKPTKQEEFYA
Kind of test: flow cytometry, U266 cells. How it is done: (§3) Binding of anti-CD138 antibodies to CD138 was tested by flow cytometry binding assay. Multiple myeloma cell lines RPMI 8226 (ATCC) and U266 (ATCC) were grown in RPMI1640 with 10% FBS. On the day of experiment, 0.25×10⁶ cells were washed with FACS buffer (PBS+0.5% BSA) and incubated with dilution series of anti-CD138 antibodies (starting 10 ug/ml) or hybridoma supernatants (starting with undiluted supernatant) for 30 min at 4° C. followed by incubation with goat-anti-human/mouse conjugated APC antibodies (BioLegend) for 30 min at 4° C. Fluorescence was detected using flow cytometer.
(§4) The afucosylated antibody variants were then tested for capacity to induce ADCC, as described above.

The target in test [5] is T5, Peptide 2C (human, biotin at the amino terminus).
T5 construct: also called Pep2c
T5 peptide: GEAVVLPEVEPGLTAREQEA
Kind of test: bio-layer interferometry, biotinylated peptide.

The target of test [6] is T6, Peptide 6B (human, biotin at the amino terminus).
T6 construct: also called Pep6b
T6 peptide: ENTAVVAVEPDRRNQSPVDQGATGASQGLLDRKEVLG
Kind of test: bio-layer interferometry, biotinylated peptide.

For test [7], the target named is T7, Peptide 6E (human, biotin at the amino terminus).
T7 construct: also called Pep6e
T7 peptide: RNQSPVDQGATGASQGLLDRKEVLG
Briefly: bio-layer interferometry, biotinylated peptide.

The target of test [8] is T1, recombinant CD138 extracellular domain …. Kind of test: ELISA (FIG. 18A).
Test [9] addresses T3, Peptide 2a. Kind of test: ELISA (FIG. 18B).
Test [10] deals with T2, Pep6. Briefly: ELISA (FIG. 18C).
For test [11], the target named is T4, cell surface CD138 (human CD138). Briefly: flow cytometry, U266 cells, afucosylated antibody. On the procedure: as §3, §4
The target in test [12] is T6, Peptide 6B. Briefly: ELISA with captured antibody (FIG. 21); also bio-layer interferometry (FIG. 22A). On the procedure: Briefly, biotinylated peptides (Peptides 2A, 2D, 6B, and 6F; sequences shown in FIG. 22C) were used at 50 nM and captured on streptavidin capture biosensors. Antibodies were then run over the captured peptides at concentrations of 25 nM to 6.25 nM.

In test [13] the target is T8, Pep5 (human).
T8 construct: also called Peptide 5
T8 peptide: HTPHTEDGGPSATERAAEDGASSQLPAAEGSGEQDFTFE
Briefly: peptide binding ELISA. How it is done: as §2

Test [14] concerns the target T1, recombinant CD138 extracellular domain …. Briefly: ELISA, recombinant CD138 extracellular domain. How it is done: as §1
The target of test [15] is T9, mutated CD138 Clone 1 (human, UniProt P18827 23-310).
T9 construct: Leu107, Pro108, Glu109 of the original site mutated to Ala; Expressed on Expi293 cells
T9 chain: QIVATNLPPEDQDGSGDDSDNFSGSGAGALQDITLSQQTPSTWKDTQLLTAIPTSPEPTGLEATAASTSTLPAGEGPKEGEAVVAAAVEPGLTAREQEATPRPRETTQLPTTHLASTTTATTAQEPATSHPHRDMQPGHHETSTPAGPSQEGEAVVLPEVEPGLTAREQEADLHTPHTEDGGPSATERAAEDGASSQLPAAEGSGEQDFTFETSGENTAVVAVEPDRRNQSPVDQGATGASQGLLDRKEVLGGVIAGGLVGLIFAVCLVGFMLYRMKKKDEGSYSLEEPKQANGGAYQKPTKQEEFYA
Briefly: staining of Expi293 cells expressing the CD138 variant.

Test [16] concerns the target T10, mutated CD138 Clone 2 (human, UniProt P18827 23-310).
T10 construct: Leu107, Pro108, Glu109 mutated to Ala; Expressed on Expi293 cells
T10 chain: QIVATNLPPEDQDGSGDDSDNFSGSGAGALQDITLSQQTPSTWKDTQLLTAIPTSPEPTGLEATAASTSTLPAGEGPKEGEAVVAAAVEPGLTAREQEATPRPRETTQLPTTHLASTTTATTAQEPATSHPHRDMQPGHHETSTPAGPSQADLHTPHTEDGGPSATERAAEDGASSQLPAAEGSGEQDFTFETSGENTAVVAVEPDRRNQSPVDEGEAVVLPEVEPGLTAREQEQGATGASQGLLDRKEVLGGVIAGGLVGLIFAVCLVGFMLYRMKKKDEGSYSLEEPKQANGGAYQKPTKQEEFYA
The description is as above.

In test [17] the target is T11, mutated CD138 Clone 4 (human, UniProt P18827 23-310).
T11 construct: Leu107, Pro108, Glu109 mutated to Ala; Expressed on Expi293 cells
T11 chain: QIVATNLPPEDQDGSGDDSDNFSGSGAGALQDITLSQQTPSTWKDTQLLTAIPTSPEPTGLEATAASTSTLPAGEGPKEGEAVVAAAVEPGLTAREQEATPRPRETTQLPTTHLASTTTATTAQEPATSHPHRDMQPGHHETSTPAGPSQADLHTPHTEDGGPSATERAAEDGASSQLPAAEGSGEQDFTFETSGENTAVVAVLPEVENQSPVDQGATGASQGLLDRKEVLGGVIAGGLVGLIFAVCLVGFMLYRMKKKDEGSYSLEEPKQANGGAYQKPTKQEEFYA
The test is described as above.

For test [18], the target named is T12, mutated CD138 Clone 5 (human, UniProt P18827 23-310).
T12 construct: Leu107, Pro108, Glu109 mutated to Ala; Expressed on Expi293 cells
T12 chain: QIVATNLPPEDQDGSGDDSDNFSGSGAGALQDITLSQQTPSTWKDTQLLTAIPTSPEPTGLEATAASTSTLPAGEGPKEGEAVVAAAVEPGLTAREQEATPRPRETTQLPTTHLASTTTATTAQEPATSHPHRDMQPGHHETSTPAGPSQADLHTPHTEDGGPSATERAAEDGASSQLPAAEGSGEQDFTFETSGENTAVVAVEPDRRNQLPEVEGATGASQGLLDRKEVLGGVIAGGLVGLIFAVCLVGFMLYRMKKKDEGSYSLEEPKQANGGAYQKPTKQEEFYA
The description is as above.

B1: antibody 1610 (antibody, V domains shown)
VH: QVQLHQPGTSLVKPGASVKLSCKASGYNFSSYYMHWVKQRPGQGLEWIGTIHPSDSTTNCNQKFKGKATLTVDKSSRTAYMQLNSLTFEDSAVYYCANFVYWGQGTSVTVSS
VL: DIVITQDELSNPVTSGDSVSISCRSSKSLLYKDGKTYLNWFLQRPGQSPQLLIYVVSTRASGVSDRFSGSGSGTDFTLEISRVKAEDVGVYYCQQLVEYPYTFGGGTKLEIK
notes: Chimeric monoclonal antibody, murine variable regions and human IgG1
For B1, the EC50 stood at 0.394 µg/mL in test [1] and 0.0019 µg/mL in test [4]. Further, the binding result in test [2] is recorded as “binds”; in test [3], “binds”; in test [5], “binds”; in [6] it was “binds”; in [7], “no binding”.

B2: antibody 2810 (antibody, V domains shown)
VH: QVQLHQPGTSLVKPGASVKLSCKASGYSFSSYYMHWVKQRPGQGLEWIGTIHPSDSTTNYNQKFKGKATLTVDKSSRTAYMQLNSLTFEDSAVYYCANFVYWGQGTSVTVSS
VL: DIVITQDELSNPVTSGDSVSISCRSSKSLLYKDGKTYLNWFLQRPGQSPQLLIYVVSTRASGVSDRFSGSGSGTDFTLEISRVKAEDVGVYYCQQLVEYPYTFGGGTKLEIK
B2: the binding result in [8], in test [9], in test [10], in test [11] and in test [12] was “binds” in each case.

B3: antibody CD002 (antibody, V domains shown)
VH: QVQLQQPGAELVKPGASVKLSCKASGFSFITYWMNWIKQRPGRGLEWIGRIHPSDSATQYNQKFKTKATLTVDKSSSTAYIQLSSLTSEDSAVYYCARSTEGAHWGQGTLVTVSA
VL: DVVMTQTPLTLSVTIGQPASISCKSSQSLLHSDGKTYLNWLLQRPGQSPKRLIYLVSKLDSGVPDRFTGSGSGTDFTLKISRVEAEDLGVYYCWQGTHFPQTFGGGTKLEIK
Take B3: the binding result in test [13] and in [14] was “binds” throughout.

B4: antibody B-B4 (antibody, V domains shown)
VH: QVQLQQSGSELMMPGASVKISCKATGYTFSNYWIEWVKQRPGHGLEWIGEILPGTGRTIYNEKFKGKATFTADISSNTVQMQLSSLTSEDSAVYYCARRDYYGNFYYAMDYWGQGTSVTVSS
VL: DIQMTQSTSSLSASLGDRVTISCSASQGINNYLNWYQQKPDGTVELLIYYTSTLQSGVPSRFSGSGSGTDYSLTISNLEPEDIGTYYCQQYSKLPRTFGGGTKLEIK
notes: detected with anti-human IgG-Fc; afucosylated and biotinylated versions also used; also called B-B4-IgG1; MAb B-B4
Take B4: the binding result in test [3] was “binds”; in [6] it was “no binding”; in test [15], “binds”; in test [16], “binds”; in [17] it was “binds”; in [18], “binds”.
